Data on seven substances can be found in article PMC5013604.

A short description of data set [1]: cycloheximide chase, western blot, MDA-MB-231. The following applies: glycan lost; control: wild type.
Data set [2] can be described thus: western blot with GSK3β and β-TrCP overexpression. Particulars: glycan lost; control: wild type (co-expressed).
The nature of data set [3]: PD-L1 IP, anti-K48 ubiquitin blot, with MG132. The following applies: glycan lost; control: MG132 without tunicamycin.

For “PD-L1 (programmed death ligand-1, B7-H1): 4NQ”, the “degradation_or_half_life, half_life” value in data set [1] is reported as “decreases”. Further, the expression_or_secretion result in data set [2] is “decreases”.

As for “PD-L1 (programmed death ligand-1, B7-H1): N35/3NQ”, in data set [1], the “degradation_or_half_life, half_life” value is reported as “decreases”.

For the substance “PD-L1 (programmed death ligand-1, B7-H1): N35Q”, in data set [1], the “degradation_or_half_life, half_life” value is “no change”.

With “PD-L1 (programmed death ligand-1, B7-H1): N192Q”, in data set [1], the “degradation_or_half_life, half_life” value is reported as “decreases”.

Take “PD-L1 (programmed death ligand-1, B7-H1): N200Q”: the “degradation_or_half_life, half_life” value in data set [1] is “decreases”.

As to “PD-L1 (programmed death ligand-1, B7-H1): N219Q”, the “degradation_or_half_life, half_life” value in data set [1] was “decreases”.

With “PD-L1 (programmed death ligand-1, B7-H1): tunicamycin”, in data set [3], the “other: ubiquitination” value was “increases”.
